Assay results: paper PMC6921269

Columns and labels:
[1] = system: CCCCCCCCCCCCCCCC(=O)CC(=O)SCCNC(C)=O; assay: purified protein; settings: co-substrate C5 diketide-NAC, 37 °C, 20 min
[2] = system: CCCCCCCCCCCCCCCCCC(=O)CC(=O)SCCNC(C)=O; assay: purified protein; settings: co-substrate C5 diketide-NAC, 37 °C, 20 min

Q: How did the Km [1] turn out when CsyB (Aspergillus oryzae RIB40; I375F) was run?
A: 5.4 ± 1.8 mM

Q: What about the kcat [1] of the same substance?
A: 0.713 ± 0.075 s⁻¹

Q: What about the kcat/Km [1] of the same substance?
A: 132 M⁻¹ s⁻¹

Q: And the Km [2]?
A: 6.5 ± 2.1 mM

Q: What about the kcat [2] of the same substance?
A: 0.882 ± 0.14 s⁻¹

Q: What about the kcat/Km [2] of the same substance?
A: 136 M⁻¹ s⁻¹
